Experimental data published in patent publication US20090282582A1, “ENVIRONMENTAL STRESS RESPONSIVE PROMOTER AND METHOD OF TISSUE-SPECIFIC GENE EXPRESSION USING THE SAME” (RIKEN, priority 2006, published 2009).

Experiments:
[1] = test system: Arabidopsis thaliana (columbia ecotype) plant body; test: full-length cDNA microarray analysis of gene expression levels after environmental stress application; conditions: in vivo
Description: In this example, the gene expression levels at the time of application of various types of environmental stresses were analyzed using microarrays. Specifically, the microarrays described in Seki et al., “Monitoring the expression profiles of 7000 Arabidopsis genes under drought, cold, and high-salinity stresses using a full-length cDNA microarray,” Plant J. 31: 279-292, 2002, were used, and analysis was carried out in accordance with the method similar to the method described therein. Various types of environmental stresses were applied to a plant body under the following conditions. Specifically, low-temperature stress application was carried out by introducing a plate containing a plant body into a low-temperature chamber (4° C.). Dehydration stress application was carried out by capturing the plant body with forceps while refraining from damaging the plant body, roughly removing moisture from the plant body on a Kim Towel, placing the plant body on another plate, placing the plate in a clean bench while leaving the lid open, letting it stand for 2 hours, and then closing the lid. Salt stress application was carried out by dispensing a mixture of MS medium (containing 1% sucrose, 0.1% agar, and 1 mM luciferin) with 250 mM NaCl to the roots of the plant bodies (200 μl per plant body) using a Pipetman. ABA stress application was carried out by dispensing a mixture of MS medium (containing 1% sucrose, 0.1% agar, and 1 mM luciferin) with 100 μM ABA to the roots of the plant bodies (200 μl per plant body) using a Pipetman. As a plant body to which environmental stress is to be applied, Arabidopsis thaliana (columbia ecotype), which had been cultivated on a germination medium containing Murashige and Skoog Salt, 3% sucrose, and […] for 3 weeks, was used. Cultivation conditions were determined so as to maintain the temperature in the chamber at 22° C. with a 16-hour light period and an 8-hour dark period. Total RNA was extracted from plant bodies after environmental stress application or from plant bodies to which no environmental stress had been applied using the TRIZOL Reagent (Life Technologies), and mRNA was extracted using the mRNA isolation kit (Militenyi Biotec Auburn). In accordance with the method described in the above article, mRNA samples were reversely transcribed in the presence of Cy3 dUTP or Cy5 dUTP (Amersham Pharmacia). Microarray analysis was carried out using cDNAs obtained via reverse transcription. Data obtained via microarray analysis were analyzed using the Quantarray Version 2.0 (GSI Lumonics).

[2] = test system: transgenic Arabidopsis thaliana plant body (luciferase reporter gene); test: luciferase assay of promoter::LUC transgenic plants after environmental stress application; type: in vivo; conditions: for Tissue allowing specific induction: summary over stress types
Description: Specifically, promoter regions were isolated from these genes, transgenic plants in which luciferase reporter genes were to be expressed under the control of such promoters were prepared, and tissue specificity of the promoters was inspected via luciferase assay.
In this example, DNA fragments containing promoter regions of the genes identified in Example 1 were recovered via PCR.
The nucleotide sequences of the amplified DNA fragments were determined in accordance with a conventional technique to confirm that mutagenesis, such as substitution or deletion, was not introduced thereinto. After the absence of mutagenesis was confirmed, the recovered DNA fragments were introduced into the vector for promoter analysis (i.e., a vector prepared by introducing the Gateway recombinant sequence (tradename: Gateway Vector Conversion System, Invitrogen) and the luciferase reporter gene into the pGreen vector (Plant Molecular Biology 42: 819-832, 2000)) using the Gateway recombination system to construct a recombinant vector.
The recombinant vector prepared in (1) above was introduced into a plant via Agrobacterium infection. When a gene is introduced via Agrobacterium infection, a process of infecting a plant with Agrobacterium containing a plasmid comprising the target gene construct is necessary. This process was carried out via vacuum infiltration. Specifically, a plant body of Arabidopsis thaliana that had been grown in soil comprising vermiculite and an equivalent amount of pearlite was soaked in a culture solution of Agrobacterium containing the recombinant vector prepared in (1). The resultant was placed in a desiccator, suctioned with a vacuum pump to 65 to 70 mmHg, and then allowed to stand at room temperature for 5 to 10 minutes. The pot was transferred onto a tray, covered with a wrap, and kept moistened. The wrap was removed on the following day, the plant was allowed to grow in that state, and seeds were then harvested.
Subsequently, seeds were sown on MS agar medium to which antibiotic hygromycin has been added in order to select an individual having the recombinant vector prepared in (1). Arabidopsis thaliana that had been grown in this medium was transferred to a pot and allowed to grow therein. Thus, seeds of transgenic plants to which the recombinant vector prepared in (1) has been introduced were obtained.
The seeds of the transgenic plant lineage prepared in (2) were sowed on MS agar medium. The plant body 10 days after sowing was used for luciferase assay.
At the outset, 1 mM luciferin (containing 0.01% Triton-X) was sprayed over the entire plant body 5 times. After the plant body was allowed to stand in the dark for 5 minutes, luciferase luminescence was assayed using ARGUS (assay after treatment for 0 hours). Subsequently, various types of environmental stresses were applied (see below). Low-temperature stress application was carried out by introducing a plate containing a plant body into a low-temperature chamber (4° C.). Dehydration stress application was carried out by capturing the plant body with forceps while refraining from damaging the plant body, roughly removing moisture from the plant body on a Kim Towel, placing the plant body on another plate, placing the plate in a clean bench while leaving the lid open, letting it stand for 2 hours, and then closing the lid. Salt stress application was carried out by dispensing a mixture of MS medium (containing 1% sucrose, 0.1% agar, and 1 mM luciferin) with 250 mM NaCl to the roots of the plant bodies (200 μl per plant body) using a Pipetman. ABA stress application was carried out by dispensing a mixture of MS medium (containing 1% sucrose, 0.1% agar, and 1 mM luciferin) with 100 μM ABA to the roots of the plant bodies (200 μl per plant body) using a Pipetman.
Luciferase luminescence was assayed 2, 5, and 10 hours after the above various types of environmental stresses had been applied using the ARGUS system (Hamamatsu Photonics). […]

Row | Molecule | Environmental stress type to which the promoter responds [1] | Tissue in which specific induction of expression is realized ([2]; ABA stress (100 μM ABA)) | Tissue in which specific induction of expression is realized ([2]; ABA stress (100 μM ABA), listed as promoter of RAFL06-07-B19) | Tissue in which specific induction of expression is realized ([2]; Dehydration stress) | Tissue in which specific induction of expression is realized ([2]; Dehydration stress, listed as promoter of RAFL06-07-B19) | tissue in which expression is induced ([2]; dehydration stress applied for 5 hours) | tissue in which expression is induced ([2]; dehydration stress applied for 10 hours) | tissue in which expression is induced ([2]; dehydration stress applied for 10 hours, listed as promoter of RAFL06-07-B19) | Tissue allowing specific induction [2] | activity to induce gene expression ([2]; 5 hours after dehydration stress application) | Tissue in which specific induction of expression is realized ([2]; Dehydration stress, listed as promoter of RAFL05-18-I12)
1 | Promoter of RAFL06-07-B19: environmental stress responsive promoter DNA, SEQ ID NO: 4, upstream of At3g11410 (AHG3 gene) (nucleic acid, listed as Arabidopsis thaliana) DNA: CCCGAACTTAACCCAAATGCCCACCTTTAATTATTCAAAACCAAAAAAGAAGTGTTTGATGCTGAGGTTTGAACTCATCAGATACACGTAACTATTTTCCAATTTATTTTCGTTTATGTGCATTTCAGAATTTCAAGCATAAATATACTCTTATTGTTTAAACATTTCAAATTGCATGTGTGAAATAATATCAGAGTTAGAATATATGTTAATCTTCTCTTCTCCTAGATTCAGTTAGATACGTTTCTATCTTCTTTTAGGCAACATCTCTTGTACAAATAGTCTCTTTGGCAATTCAATACAATCAACCTTTTACGATATATATATTTGTTATTTCTTGTACAAATAGGATCAAAATTGTTATTTCTGAAGCAAATTTTCTTTAGTTTGGATGTCAATTATATCCTCGATTAATATGTAATCACGGAACGGATTCACGATGCGTTATTTTAGAAGCAAATTTATACTTGATAGTACGTTCAGAGGCATCGCTTTTGTACAAATTGAAGCGGGTTTGTTCAATATTTAAAATAACACAGGAAACATTCAAATGTATTATTGATGTTGCTTAGGTTTGTGAAATGATATGAACCATATCGTATATATTACTAGATTTTTCTTATATGTTTTAAGGGTAGTGGGGCTGACCTATCATTCTGTTTGGCATTACCAATCAGACTATCAGAGTATTCACCATTCAGGATTCCATAACTAGAAAAAGAAGGGGTTTACATTTTCTCATACTGTATAATTTTCTACTATCAGAGATTTTATCGATTACATTAATCTCATAGTGATTATTCTGATTTATAAAAAAGTTGACAAAATAATTAAAACCAGTATTTTATAACAAGATTGTCTCTCTCCCATGGCCATTATTTTGACCTCTGACTTATTTAAATCTTAATTAACAGCATAATACTGTATTAAGCGTATTTAAATGAAACAAAATAAAAGAAAAAAAGAACAAAACGAAAGAGTGGACCACATGCGTGTCAAGAAAGGCCGGTCGTTACCGTTAAGGTGTGTCGAACTGTGATTGGGCCACGTTAACGGCGTATCCAAAAGAAAGAAAGGGCACGTGTATAGATCTAGGAAAAAAGAAAGAATGGACGGTTTAGATTGTATCTAGGTACCAGGAAATGGAACGTCACACCAAACGGTACGTGTCGGATCCTGCCCGTTGATGCTGACGGTCAGCAACTTCCCCTTATTCATGCCCCCCTGCCCGTTAATTACGTGTAACCCTTCCATGCGAAAATCAAACCCTTTTTTTTTTTTGCGTTCTTCTTCAACTTTTCTTTTTAAATCAAACCTTTTCTTTTTAAAATCACATTGCATTTCCTAACGCTCAACAAAATCTCTCTCTACTAATATCTCTCTCTCTCTCTCTCTATTGTTGAAGAAGACTCATAATCGGAGATTGTTTGTTTTTGGTTTGCTCTGTAAATTGGAGAAGTTTTGTTAGAGATCAA | Dehydration, salt, | Root tissue | root tissue | Stem and leaf tissue and root tissue*^1 | stem and leaf tissue and root tissue | stem and leaf tissue and root tissue | leaf tissue and root tissue | lowered activity to induce gene expression in stem tissue and root tissue but to induce gene expression in leaf tissue | Stem and leaf tissue and root tissue |  | 
2 | Promoter of RAFL05-18-I12: environmental stress responsive promoter DNA, SEQ ID NO: 2, upstream of At2g47770 (homolog of benzodiazepine receptor) (nucleic acid, listed as Arabidopsis thaliana) DNA: ACCATGGCACCTGAAATACGTAAGGATACAAGAAGAGATATCATCACTGAATTCACTAAAATCACTCCCATCATAAACAGACAAATCAAAACCAAAATATTGTTCATTAACATCGTAAATGGACAACGCTTGACAACGTCTACAAATACTTGATGAAAAGAGATAAGAAATAAGTCTTCATTTATACCACATCAGTCTTCACGTAGATGATCAAGACGATCCCCAGATTGACAATGTAGAGAACACCAAAAAGAATCTGCAAAATGTAAGAGAGTAGAATTGAGACAAATGAAGCGATGGATGGATCAAATTCCGCAGCTAATCCAAAGATAGGAGATTCAAAGAGAGGGAATTGCAAGCACCTGAGCAGGGTAGACTTCCCCTCCAGTTAAGTTCTGCACTGCAGAGTAAACATAGAGGAAACCTGCTGGATAAACCAATGGCCCTGTATCGCCTTTCAAGTTCCCATAGTCTCTCTCTCCCCCGAGAAACCCACTAACCTGCCCCAATTAGATAAATTTCACTTAAAGACTACTAGTTTACTTTGAAGAAACCACAGTTGACCATTGACACTTACCTGTGACATGTAAGCATCCCAATCGATCTTCGTGTCTGTTAAAGGCAAATGACGAAATTTGGTTTAAAACCTATGCAAATGCACATTTCGAGGGATACGCAAGCAAAAAAAAAAAGGAGGTAAATAGCTCTCACATGGAACATAGGCGATAATAAGTGCGACTAGGATTGCATCAGCAAGAATTAGCGCGAATGCGAATGGAACTGCAGGTTTTTTGAATAGATCGGATCGATTCGTCTCCTTCCCCAGCCGACGGCTACGAGAAGCTCTCAAACTCGCCGGTGATGAGGCGCCCGCCATGAAAACAGAGCAAATCGCATCAGCGTCTAGCCAACGCCGCGTAACAGACAACTACTTCCATATTACTACTCTTCTAATTAGCCCAAATTAAATGAGCCTATTGGGCTTCTTGTCTTAGTCGGTGTAGAGCCCAATTGTTGTTTTATTTTTTAATAATGCAAAAGTATTAAGCGATAAATAAATAAGCATCGCAATCGTCCCAAAACTGTGTGTATGCATCAGACATGAGCATATAGAGTAAGCACGTGTCCACACTTTTTCACAAAGTTATCTAAAAACAAAAAACAATTAATTAGCATTCGACGTGTACATATCACTCGCCACGTGTACAAGAGCCTTGGCCTTTTTGCTTCTTCTTCTTGTCTATTAATATCATCTCCTGATTATACTCTCTTTTGACCAAGCTGCTTCTTCTCCATCTATCCAACATCTCAAATCTCAGTAATCTTGTTCCTTCGATTCTGTTTTGGACGTTTGTA | Dehydration and salt |  |  | Stem and leaf tissue and root tissue |  |  |  |  | Stem and leaf tissue and root tissue | strong activity | stem and leaf tissue and root tissue
